Consider 29 molecules from patent publication US12044680.

Values joined by “and” are separate entries in the source; they are usually repeats but may differ in a detail not shown here. Equal values may be shown once. Read-outs that look alike come from different tables or passages of the source.

The target of experiment [1] is HLA-A*02:01 tetramer (human). Nature of the experiment: peptide exchange on HLA-A*02:01 tetramer, entering peptide 20 µM, 4 h; competitor: exiting peptide ILKEKK(DNP)VHGV; capture on anti HLA-ABC beads, anti-DNP FITC, flow cytometry. For orientation: In flow cytometry, cells or beads pass a laser one at a time.
Experiment [2] addresses HLA-A*02:01 tetramer (human).
Experiment [3] addresses HLA-A*24:02 tetramer (human).
For experiment [4], the target named is T1, H-2 Kb tetramer (murine), P01901.
T1 chain: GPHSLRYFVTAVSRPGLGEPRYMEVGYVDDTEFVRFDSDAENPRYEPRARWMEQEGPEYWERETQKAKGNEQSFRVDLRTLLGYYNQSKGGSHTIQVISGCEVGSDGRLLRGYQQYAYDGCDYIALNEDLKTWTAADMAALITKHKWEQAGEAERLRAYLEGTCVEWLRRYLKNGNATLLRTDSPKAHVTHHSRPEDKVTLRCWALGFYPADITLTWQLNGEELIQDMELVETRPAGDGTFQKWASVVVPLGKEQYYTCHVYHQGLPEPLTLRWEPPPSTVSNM

In experiment [5] the target is HLA-A*24:02 tetramer (human). Nature of the experiment: peptide exchange on HLA-A*24:02 tetramer, competing peptide 20 µM, 4 h; competitor: exiting peptide TFQRK(DNP)PAAF; capture on anti HLA-ABC beads, anti-DNP FITC, flow cytometry.
The target in experiment [6] is T1, H-2 Kb tetramer (murine), P01901. Nature of the experiment: peptide exchange on H-2 Kb BV421 tetramer, reference peptide 20 µM, glycyl-methionine, 4 h; competitor: exiting peptide TFQRK(DNP)PAAF; bead sandwich immunoassay, flow cytometry.
For experiment [7] the target is unchanged. In words: peptide exchange on H-2 Kb PE tetramer, reference peptide 20 µM, glycyl-methionine, 4 h; bead sandwich immunoassay, flow cytometry.
Experiment [8] has the same target. In words: peptide exchange on H-2 Kb APC tetramer, reference peptide 2 µM, glycyl-methionine, 4 h; competitor: exiting peptide TFQRK(DNP)PAAF; bead sandwich immunoassay, flow cytometry.
Experiment [9] has the same target. In words: peptide exchange on H-2 Kb BV421 tetramer, reference peptide 2 µM, glycyl-methionine, 4 h; competitor: exiting peptide TFQRK(DNP)PAAF; bead sandwich immunoassay, flow cytometry.
For experiment [10] the target is unchanged. In words: peptide exchange on H-2 Kb PE tetramer, reference peptide 2 µM, glycyl-methionine, 4 h; competitor: exiting peptide TFQRK(DNP)PAAF; bead sandwich immunoassay, flow cytometry.
Experiment [11] has the same target. Nature of the experiment: peptide exchange on H-2 Kb APC tetramer, reference peptide 20 µM, glycyl-methionine, 4 h; competitor: exiting peptide TFQRK(DNP)PAAF; bead sandwich immunoassay, flow cytometry.
Setting [12] is: remark: other sources report otherwise.

LTLGEFLKL (modifications not checked) [… (SEQ ID NO: 39)] returned a % peptide exchange in [1] of 43.6%.
Take CINGVCWTV (modifications not checked) [… (SEQ ID NO: 36)]: the % peptide exchange in [2] came to 85.3%.
In turn, IMQIMPYGC (modifications not checked) [… (SEQ ID NO: 41)] yielded a % peptide exchange in experiment [1] of 59.9%.
As for RIKDFLRNL (modifications not checked) [… (SEQ ID NO: 42)], the % peptide exchange in [1] was found to be 34%.
As to EYILSLEEL (modifications not checked) [… (SEQ ID NO: 45)], the % peptide exchange in [1] is 24.2%.
Consider GYSLKLSKL (modifications not checked) [… (SEQ ID NO: 25)], for which the % peptide exchange in experiment [3] came to 37.9%.
The molecule SLPPPGTRV (modifications not checked) [… (SEQ ID NO: 38)] gave a % peptide exchange in experiment [1] (setting [12]) of 86.6%.
With TFQRKPAAF (modifications not checked) [TFQRK(DNP)PAAF (SEQ ID NO: 16)], the % peptide exchange (loss of the exiting peptide without entering peptide) in experiment [4] is 16% and 13.3% and 30.4%.
In experiment [1], YLLEFTPPV (modifications not checked) [HLA-A*02:01 Reference peptide, … (SEQ ID NO: 5)] returned a % peptide exchange of 91.9%.
Same read-out and setting: in the case of ALLAVGATK (modifications not checked) [… (SEQ ID NO: 43)] it was 25.7%.
In turn, IRLRPGGKK (modifications not checked) [… (SEQ ID NO: 49)] registered a % peptide exchange in experiment [2] of 25%.
For the molecule IMQLMPFGC (modifications not checked) [… (SEQ ID NO: 40)], the % peptide exchange in experiment [1] (setting [12]) was 40.9%.
The molecule IYSTVASSL (modifications not checked) [… (SEQ ID NO: 27)] came in with a % peptide exchange in [3] of 101%.
As for ATVQGQNLK (modifications not checked) [… (SEQ ID NO: 48)], the % peptide exchange in experiment [1] worked out at 27.9%.
Still for that read-out and setting: the figure for SYVPSAEQI (modifications not checked) [… (SEQ ID NO: 47)] is 25%; for ALALEVGEL (modifications not checked) [… (SEQ ID NO: 46)] it is 85.1%.
As for FLSELTQQL (modifications not checked) [… (SEQ ID NO: 21)], the % peptide exchange in experiment [5] was found to be 23.6%.
In [3], RYMRWTYRF (modifications not checked) [… (SEQ ID NO: 31)] gave a % peptide exchange of 101%.
For the molecule WMHKVPASL (modifications not checked) [… (SEQ ID NO: 35)], in [1], the % peptide exchange was determined as 87.9%.
As to GLAVVTHGL (modifications not checked) [… (SEQ ID NO: 24)], the % peptide exchange in experiment [1] turned out to be 91%.
CSLWNGPHL (modifications not checked) [… (SEQ ID NO: 44)] yielded a % peptide exchange in experiment [1] of 55.2%.
On to SIYRYYGL (modifications not checked) [reference entering peptide (SIYRYYGL (SEQ ID NO: 59))], for which the % peptide exchange in [6] is 97.3%; in [7] it was 100%; in [8], 97.1%; in experiment [9] it was 90.6%; in [10], 92.7%; in [11], 99.1%.
Consider WMHHNMDLI (modifications not checked) [… (SEQ ID NO: 37)], for which, in experiment [1], the % peptide exchange worked out at 89.2%.
AVLDGLLSL (modifications not checked) [… (SEQ ID NO: 34)]: the % peptide exchange in experiment [1] was found to be 90.7%.
On to LNMADKKET (modifications not checked) [… (SEQ ID NO: 28)], for which the % peptide exchange in [3] is 10.3%.
Take GLADQLIHL (modifications not checked) [… (SEQ ID NO: 23)]: the % peptide exchange in experiment [2] was found to be 91.4%.
In the case of AMAPRTLLL (modifications not checked) [… (SEQ ID NO: 18)], the % peptide exchange in experiment [5] was determined as 81.6%.
In experiment [1], FLYDDNQRV (modifications not checked) [… (SEQ ID NO: 33)] had a % peptide exchange of 91.2%.
As for RVRAYTYSK (modifications not checked) [… (SEQ ID NO: 30)], the % peptide exchange in experiment [3] is 10.3%.
